In the nanobody polyreactivity screen of Harvey et al. (2022):

Test: yeast display, Sf9 membrane polyspecificity reagent, FACS + sequencing; frameworks hold sequencing errors
Outline: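 In a synthetic yeast display library (Saccharomyces cerevisiae BJ5465), nanobody expression was induced with galactose for 36–48 hours. FACS gates were set low and high (top ~1%) using anti-HA fluorescence for expression and streptavidin fluorescence for binding of the Sf9 membrane reagent. Each polyreactivity label is drawn from the gate of origin.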

Sequence | polyreactivity (PSR sort gate)
QVQHVESGGGLVQAGGSLRLSCAASGSIFDVYTMGWYRQAPGKQRELVAAINTGGGSTYYADSVKGRFTISRDNAKNTVYLQMISLKPEDTAVYYCAASVYHYGPLYYWGQGTQVTVSS | low polyreactivity
QVQHVESGGGLVQAGGSLRLSCAASGSIFIPYAMGWSRQPPGKERELVAAISWSGSSTYYADSVKGRFTISRDNAKNTVYLQMISLKPEDTAVYYCAAYNAYRRGYDYWGQGTQVTVSS | high polyreactivity
QVQHVESGGGLVQAGGSLRLSCAASGSIFNTYTMGWYRQAPGKERELVAAISSGGSTYYADSVKGRFSISRDNAKNTVYLHMNSLKPEDTAVYYCAAYGHSFQIYDYWGQGTQVTVSS | low polyreactivity
QVQHVESGGGLVQAGGSLRLSCAASGSIFPHYAMGWYRQAPGKERELVAAISYSGGRTYYADSVKGRFTISRDNAKNTVYLQMNSLKPEDTAVYYCAKPERVLYHGDYWGQGTQVTVSS | low polyreactivity
QVQHVESGGGLVQAGGSLRLSCAASGSIFRFYAMGWYRQAPGKERELVAAISWSGGSTYYADSVKGRFTISRDNAKNTVYLQMNSLKPEDTAVYYCNTRYYGGFDSWGQGTQVTVSS | high polyreactivity
QVQHVESGGGLVQAGGSLRLSCAASGSIFRRNAMGRYRQAPGKVRELVAGISGGGSTYYADSVKGRFTISRDNAKNTVYLQMNSMKPEDTAVYYCATDKHYRSAGFDYWGQGTQVTVSS | low polyreactivity
QVQHVESGGGLVQAGGSLRLSCAASGSIFRYYAMGWYRQAPGKERELVAASTSGGSTSYADSVKGRFTISRDNAKNTVYLQMNSLKPEDTAVYYCAKRSRHNKYYYWGQGTQVTVSS | high polyreactivity
QVQHVESGGGLVQAGGSLRLSCAASGSIFYTYPMGWNRQAPGKERELVAAISFSDGDTYYADSVKGRFTISRDNAKNTVYLQMIRLKPVDTAVYYCNDYVYLPNYPYDYWGQGTHVTVSS | low polyreactivity
QVQHVESGGGLVQAGGSLRLSCAASGSIIYRNAMGWSRQPPGKERELVAAISWSAARTYYADSVKGRFTISRDNAKNTVYLQMNSQKPEDTAVYYCNKAARFTSHQGYDSWGQGTQVTVSS | high polyreactivity
QVQHVESGGGLVQAGGSLRLSCAASGSILFKYAMGWSRQAPGQESELVATITSGGSTYYADSVKGRVTISRDNAKNTVYLQMNSLKPEDTAVYYCATGQYYYDGIVAFFELDYWGQGTQVTVSS | low polyreactivity
QVQHVESGGGLVQAGGSLRLSCAASGSLFYGNTMGWARQAPGKERELVAAISNDDSRTYYADSVKGRFTISRDNAKNTVYLQMNSLKPEDTAVYYSATRGYPYRYRQTLNYWGQGTQVTVSS | high polyreactivity
QVQHVESGGGLVQAGGSLRLSCAASGSTFAINAMGGYRQAPGKERELVAAISSSGSTNYADSVKGRFTISRDNAKNTVYLQMNSLKPEDTAVSYCAADRVWGTPQAYVPSQFDYWGQGTQVTVSS | low polyreactivity
QVQHVESGGGLVQAGGSLRLSCAASGSTFDAYAMGWYRQAPGKERELVAAISWSDTTTYYADSVKGRFTISRDTAKNTVYLQMYSLKPEDTAVSYCADEYYFTDGSYTSDYWGPGTQVTVSS | high polyreactivity
QVQHVESGGGLVQAGGSLRLSCAASGSTFFRYAKGWYRQAPGTERELVAAISYSGDSTYYADSVKGRFTISRDNAKNTVYLQMNSLKPEDSAVYYCNAVYFRYRYNYWGQGTQVTVSS | high polyreactivity
QVQHVESGGGLVQAGGSLRLSCAASGSTFGRYGMGWYRQAPGTERELVAAISRGGGTNYADSVKGRFTISRDNAKKTVYLQMNSLKPEDTAVYYCNARWYYALYDYWGQGTQVTVSS | low polyreactivity
QVQHVESGGGLVQAGGSLRLSCAASGSTFGWYAMGWYRQAPGKVRELVAAITRRGTRTYYADSVKGRFTISRDNAKNTVYLQMNSLKPEDTAVYYCNARGFPGKFGYWGQGTQVTVSS | high polyreactivity
QVQHVESGGGLVQAGGSLRLSCAASGSTFHLYAIGWYRQAPGKEREFVAAIRGRGGNTYADSVKGRFTISRDNAKNTVYLQMNSVKPEDTAVYSCAAPLLRDLRSPYSYNYWGQGTQVTVSS | low polyreactivity
QVQHVESGGGLVQAGGSLRLSCAASGSTFKHNAMGWSRQAPGKERELVAGISWGGSSTYYADSVKGRFTISRDKAKNTVYLQMNSLKPEDTAVYYCAKGGYRRYGYDYWGQGTQVTVSS | low polyreactivity
QVQHVESGGGLVQAGGSLRLSCAASGSTFQMYAMGWYRQAPGKEMELVASISWSGGSTYYAVSVMGRFTISRDNAKNTFYLQMNSLKPEDTAVYYCKADFWWRYRPGAVFRSYGYWGQGTQVTVSS | low polyreactivity
QVQHVESGGGLVQAGGSLRLSCAASGSTFSHYAMGWYRQAPGKERELVASINSAGSTNYADSVKGRFTISRDNAKNTVYLQMNSLKPEDTAVYYCNTEVQVYSYNYWGQGTQVTVSS | low polyreactivity
QVQHVESGGGLVQAGGSLRLSCAASGSTFYENAMGWYRQAPGKERELGAGIRSTGRTYYADSVKGRFTISRDNAKNTVYIQMNSLKPEDTAVYYCAAYVGTYGEYDYWGQGTQVTVSS | low polyreactivity

Sequence | polyreactivity (PSR sort gate)
QVQHVESGGGLVQAGGSLRLSCAASGSTIQNNAMGWYRQPPGKERELVAAMNNGGSTNYADSVKGRFTISRDNAKNTVYLQMNSLIPEDSAGYYCNTDRHHADYQWGWPSAFEEFGYWGLGTQVTVSS | low polyreactivity
QVQHVESGGGLVQAGGSLRLSCAASGSTLSSYAMGWSRQAPGKERELVAAINSSGGRTYYADSVKGRFTISRDNAKNTVYLKMNSVKPEDTEVYYCAATRGRYREDEDYWGQGTQVTVSS | high polyreactivity
QVQHVESGGGLVQAGGSLRLSCAASGSTSYPYAMGWYRQAPGKERELVATITSGGRTNYADSVKGRFTISRDNAKNTVYLQMNSLKPEDTAVYYCNARFYRWRSYGYDYWGQGTQVTVSS | high polyreactivity
QVQHVESGGGLVQAGGSLRLSCAASGTTFYFYAMGWYRQAPGKERELVAAITYSGGSTYYADSVKGRFTISRDNAKNTVYLQMNSLKPEDTAVYYCAAQWRRHSTRSRYYYWGQGTQVTVSS | high polyreactivity
QVQHVESGGGLVQAGGSLRLSCAASGVIIIGNAVGWYREAPVKEWEFVASIRGVGSTNYADSVKGRFTISRDNAKNTVYVQMNSLKPADSAVYYCATSVDRALYTQTRGDYEYWGQGTQVTVSS | low polyreactivity
QVQHVESGGGLVQAGGSLRLSCAASGYTFTINTMGWYRQAPGKERELVAAITWRGGSTYYADSVKGRFTISRDNAKNTVYLQMNSLKPEDSAVYYCNKDYYITTTTFDYWGQGTQVTVSS | low polyreactivity
QVQHVESGGGLVQAGGSLRLSCAATGRTFRHYAMGWYRLAPGKERELVAAISGSGGRTYYADSVKGRFTISRDNAKNTVYLQMISLKPEDTAVYYCNAYTWTYGEYEYWGQGTQVTVSS | high polyreactivity
QVQHVESGGGLVQAGGSLRLSCAAYGSIFGWYGMGWYRQAPGKERELVAAITRGGSTYYADSVKGRFTISRDNAKNTVYLQMISLKPEDTAVYYCAKRSGQQYGGYGYWGQGTHVTVSS | low polyreactivity
QVQHVESGGGLVQAGGSLRLSCAAYGSTFGVNAMGWYRQAPGKEREFVAAITWSSTSTYYADSVKGRFTISRDNAKNTVYLQMNSLKPEDTAVYYCAARQRIYRHYAYGYWGQGTQLTVSS | high polyreactivity
QVQHVESGGGLVQAGGSLRLSCASSGSIFYFYAKGWYRQAPGKERELVAAISWSGGSTYYADSVKGRFTISRDNAKNTFYLQMNSLKPEDTAVYYCNAADYWYWENDYWGQGTQVTVSS | low polyreactivity
QVQHVESGGGLVQAGGSLRLSCASSGSTSGIHAMGWYRQAPGKDRELVAAIRLSGGRTYYADSVKGRFTISRDNAKNTVYLQMNSLKPEDTAVYFCNALYRQARIRATYDYWGQGTQVSVSS | high polyreactivity
QVQHVESGGGLVQAGGSLRLSCSASGFTFYSYAMGWYRQAPGTERELLAVISKRGGSTRYADSVKGRFTISRDNAKNSVYFQMNSLKPEDTAVYYCNADQHSMTYNEFDYWGQGTQVTVSS | low polyreactivity
QVQHVESGGGLVQAGGSLRLSSAPSGRTFAYYARGWYRQAPGKERELVAAISNGGSTYYADSVKGRFTISRDNAKNTVFLQMNSLKPEDTAVYFCNAYYSDLYDYWGQGTQVTVSS | low polyreactivity
QVQHVESGGGLVQAGGSLRLTCAASGITFYRYAMGWYRQATGKEREFVAAINYGGSSTRYADSVKGRFTISLDNAKNSVYLQMNSLKPEDTAVYYCAVEKRYPRRRYDYWGQGTQVTVSS | low polyreactivity
QVQHVESGGGLVQAGGSLRLTCAASGSTFVNYAMGWYRQAPGKERELVAAITANGGRTYYADSVKGRFTISRDNAKNTVYLQMNSLKPEDTAVYYCNTESNLYRRRRNYWGQGTQVTVSS | low polyreactivity
QVQHVESGGGLVQAGGSLRLTCAASGTIFRYYTMRWYRQAPGKERELVASISRGGNTYYADSVKGRFTISRENAKNTVYLPMNSLKPEDTAVSYCAALPGSFFQAHFYYWGQGTQVTVSS | low polyreactivity
QVQHVESGGGLVQAGGTLRLSCAASGSTFLINTMGWYRQAPGKERELVAAISRSGGRTYYADSVKGRFTISRDNAKNTVYLQMNSLKPEDTAVYYCAAAYVYSNSYAFGSELYSWGQGTQVTVSS | high polyreactivity
QVQHVESGGGLVQAGVSLRLSCAASGSIFPYNAMGWYRQAPGKERELVATISSGGSTNYADSVKGRFTISRDNAKNTVYLQMNSLKPEDTAVYYCAGDVIVFYYAPNYWGDIEYGYWGQGTQVTVSS | low polyreactivity
QVQHVESGGGLVQAVGSLRLSCAASGRTFNNYAMGWYRQAPGKERELVAAISWRSDSTYYADSVMGRFTISRDNAKNTVYLQMNSLKPEDTAVYYCAASQYPLFWYDYWGQGTQVTVSS | low polyreactivity
QVQHVESGGGLVQEGGSLRLICSASGIIFSWYAMGWYRQAPGKERELVATISGGGGSTYYADSVKGRFTISRENAKNTVYLQMNRLKPEDTAVYYCAADYWNFNWRYKLYRPYDYWGQGTQVTVSS | high polyreactivity
